From patent publication US6861509 (Biogen, dated 2005)

Target: T1, human RetL2 (insert of clone DSW240) expressed on 293/EBNA cells (human, UniProt O00451 22-444)
T1 construct: no cleavage sites are stated; also called retL2 expression plasmid
T1 sequence: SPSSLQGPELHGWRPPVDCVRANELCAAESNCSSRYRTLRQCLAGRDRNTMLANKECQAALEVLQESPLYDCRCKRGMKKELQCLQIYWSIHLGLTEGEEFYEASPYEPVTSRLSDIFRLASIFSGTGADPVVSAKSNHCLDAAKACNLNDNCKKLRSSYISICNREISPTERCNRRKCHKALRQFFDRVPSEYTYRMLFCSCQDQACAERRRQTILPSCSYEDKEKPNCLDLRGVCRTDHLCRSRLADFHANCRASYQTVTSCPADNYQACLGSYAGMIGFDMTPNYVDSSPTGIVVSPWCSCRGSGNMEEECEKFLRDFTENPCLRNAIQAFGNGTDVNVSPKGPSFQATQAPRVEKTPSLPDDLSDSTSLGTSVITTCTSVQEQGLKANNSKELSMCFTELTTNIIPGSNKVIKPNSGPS
Assay: staining of 293/EBNA cells transfected with the insert of clone DSW240
Description: Plasmid DNAs (the retL2 expression plasmid, a retL1 expression plasmid for a positive control, and an expression plasmid containing an unrelated protein for a negative control) are transfected into 293/EBNA cells (8 ×10^5 on a 60 mm plate) using the lipofection method. After 48 hr, the cells are washed two times with HBHA buffer (0.5 mg/ml BSA, 0.1% NaN_3, 20 mM HEPES (pH 7.0)) and incubated with 20 ug/ml rat Ret/IgG in Tris-buffered saline plus 1 mM MgCl_2 and CaCl_2 for 60–90 min at room temperature. Following this incubation, the cells are washed four times with HBHA buffer and then fixed with 60% acetone/3% formaldehyde/20 mM HEPES (pH 7.0) for 30 sec. […]

B1: rat Ret/IgG fusion protein (Fc fusion)
chain: EAPLGLYFSRDAYWERLYVDQPAGTPLLYVHALRDAPGEVPSFRLGQYLYGVYRTRLHENDWIHIDAGTGLLYLNQSLDHSSWEQLSIRNGGFPLLTVFLQVFLGSTAQREGECHWPGCARVYFSFINDTFPNCSSFKARDLCTPETGVSFRIRENRPPGTFYQFRMLPVQFLCPNISVKYKLLEGDGLPFRCDPDCLEVSTRWALDRELQEKYVLEAECAVAGPGANKEKVAVSFPVTVYDEDDSPPTFSGGVGTASAVVEFKRKEGTVVATLQVFDADVVPASGELVRRYTSTLLSGDSWAQQTFRVEHTPNETLVQSNNNSVRATMHNYKLVLNRSLSISESRVLQLVVLVNDSDFQGPGSGVLFLHFNVSVLPVTLNLPMAYSFPVNRRARRYAQIGKVCVENCQEFSGVSIQYKLQPSSTNCSALGVVTSTEDTSGTLYVNDTEALRRPECTELQYTVVATDRQTRRQTQASLVVTVEGTYIAEEVGCPKSCAVNKRRPECEECGGLGSPTGRCEWRQGDGKGITRNFSTCSPSTRTCPDGHCDALESRDINICPQDCLRGPIVGGHERGERQGIKAGYGICNCFPDEKKCFCEPEDSQGPLCDALCRT
notes: Made in COS or CHO cells and purified on Protein A; also called Ret/Ig fusion protein; soluble Ret/IgG fusion protein; not shown: Fc portion of human IgG1 (part of the Fc domain, 700 bp Sal1 fragment from plasmid 2-4, originally from pSAB144)
  binding result: binds
